The chains are these.
B1: RSPH3 (parent)
chain: MTVKPAKAASLARNLAKRRRTYLG
B2: TRIM35 (parent)
chain: DKELLCCSCQADPRHQGHRVQPVK
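Note: lentivirally expressed fusions sorted by FACS into six bins by GFP to DsRed ratio, PSI derived from sequencing read proportions per bin multiplied by bin number.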

Variants of B1 are the subject of the first series. The series can be described thus: protein stability index of a GFP-peptide fusion (GPS, HEK-293T) (PSI 1-6); higher = more stable. To be noted: c terminus: a fixed tail appended.
Consider MTIKPAKAASLARNLAKRRRTYLG, for which the protein stability index was found to be 3.59.

As to MTFKPAKAASLARNLAKRRRTYLG, the protein stability index was found to be 3.79.

As for MTAKPAKAASLARNLAKRRRTYLG, the protein stability index was 2.85.

MTEKPAKAASLARNLAKRRRTYLG: the protein stability index was 3.22.

In the case of MTHKPAKAASLARNLAKRRRTYLG, the protein stability index is 3.23.

For the variant MTCKPAKAASLARNLAKRRRTYLG, the protein stability index was determined as 3.73.

As to MTDKPAKAASLARNLAKRRRTYLG, the protein stability index was determined as 3.02.

Take MTKKPAKAASLARNLAKRRRTYLG: the protein stability index is 3.29.

With MTLKPAKAASLARNLAKRRRTYLG, the protein stability index came out at 2.75.

As for MWVKPAKAASLARNLAKRRRTYLG, the protein stability index is 1.58.

With MHVKPAKAASLARNLAKRRRTYLG, the protein stability index amounted to 3.44.

Take MLVKPAKAASLARNLAKRRRTYLG: the protein stability index worked out at 2.17.

On to MFVKPAKAASLARNLAKRRRTYLG, for which the protein stability index came to 1.95.

Consider MSVKPAKAASLARNLAKRRRTYLG, for which the protein stability index came to 2.96.

On to MGVKPAKAASLARNLAKRRRTYLG, for which the protein stability index was found to be 3.28.

MAVKPAKAASLARNLAKRRRTYLG: the protein stability index worked out at 2.69.

For MNVKPAKAASLARNLAKRRRTYLG, the protein stability index turned out to be 3.75.

On to MDVKPAKAASLARNLAKRRRTYLG, for which the protein stability index came out at 2.88.

On to MMVKPAKAASLARNLAKRRRTYLG, for which the protein stability index amounted to 2.34.

For the variant MVVKPAKAASLARNLAKRRRTYLG, the protein stability index is 2.5.

Regarding MEVKPAKAASLARNLAKRRRTYLG, the protein stability index was found to be 2.98.

In the case of MQVKPAKAASLARNLAKRRRTYLG, the protein stability index amounted to 2.61.

Turning to MCVKPAKAASLARNLAKRRRTYLG, the protein stability index was 2.16.

As for MKVKPAKAASLARNLAKRRRTYLG, the protein stability index is 2.81.

Regarding MPVKPAKAASLARNLAKRRRTYLG, the protein stability index came to 3.41.

For MYVKPAKAASLARNLAKRRRTYLG, the protein stability index stood at 2.36.

As for MRVKPAKAASLARNLAKRRRTYLG, the protein stability index is 2.74.

For the variant MIVKPAKAASLARNLAKRRRTYLG, the protein stability index came out at 2.45.

Consider NTVKPAKAASLARNLAKRRRTYLG, for which the protein stability index was found to be 3.88.

Take ITVKPAKAASLARNLAKRRRTYLG: the protein stability index was determined as 2.15.

For ATVKPAKAASLARNLAKRRRTYLG, the protein stability index worked out at 3.34.

On to LTVKPAKAASLARNLAKRRRTYLG, for which the protein stability index is 3.36.

Regarding ETVKPAKAASLARNLAKRRRTYLG, the protein stability index was determined as 2.46.

With KTVKPAKAASLARNLAKRRRTYLG, the protein stability index came out at 2.33.

On to YTVKPAKAASLARNLAKRRRTYLG, for which the protein stability index amounted to 2.55.

Take QTVKPAKAASLARNLAKRRRTYLG: the protein stability index stood at 3.95.

For the variant WTVKPAKAASLARNLAKRRRTYLG, the protein stability index came to 2.31.

Take CTVKPAKAASLARNLAKRRRTYLG: the protein stability index came to 2.71.

With STVKPAKAASLARNLAKRRRTYLG, the protein stability index amounted to 3.02.

Turning to GTVKPAKAASLARNLAKRRRTYLG, the protein stability index was found to be 3.28.

As for FTVKPAKAASLARNLAKRRRTYLG, the protein stability index was determined as 2.35.

With PTVKPAKAASLARNLAKRRRTYLG, the protein stability index stood at 3.

For the variant DTVKPAKAASLARNLAKRRRTYLG, the protein stability index stood at 2.85.

Turning to HTVKPAKAASLARNLAKRRRTYLG, the protein stability index stood at 3.45.

In the next series the parent is B2. The description is as above. The following applies: c terminus: a fixed tail appended.
For DKELLCCSCQADPRHQGHRSQPVK, the protein stability index worked out at 3.71.

For DKELLCCSCQADPRHQGHRFQPVK, the protein stability index came to 3.48.

Consider DKELLCCSCQADPRHQGHRKQPVK, for which the protein stability index came out at 3.5.

Consider DKELLCCSCQADPRHQGHRIQPVK, for which the protein stability index was found to be 3.44.

Turning to DKELLCCSCQADPRHQGHRHQPVK, the protein stability index is 4.69.

Consider DKELLCCSCQADPRHQGHRDQPVK, for which the protein stability index came to 4.14.

Regarding DKELLCCSCQADPRHQGHRYQPVK, the protein stability index came to 3.04.

Regarding DKELLCCSCQADPRHQGHRPQPVK, the protein stability index came to 4.54.

On to DKELLCCSCQADPRHQGHRLQPVK, for which the protein stability index turned out to be 3.91.

On to DKELLCCSCQADPRHQGHRRQPVK, for which the protein stability index came to 3.5.

Take DKELLCCSCQADPRHQGHRWQPVK: the protein stability index worked out at 2.76.

With DKELLCCSCQADPRHQGHRQQPVK, the protein stability index is 4.11.

DKELLCCSCQADPRHQGHRCQPVK: the protein stability index worked out at 4.46.

As for DKELLCCSCQADPRHQGHRTQPVK, the protein stability index came to 3.5.

For DKELLCCSCQADPRHQGHRNQPVK, the protein stability index was found to be 4.13.

DKELLCCSCQADPRHQGHRAQPVK: the protein stability index was 3.13.

For DKELLCCSCQADPRHQGHREQPVK, the protein stability index worked out at 4.04.

In the case of DKELLCCSCQADPRHQGHRGQPVK, the protein stability index was 4.15.

Take DKELLCCSCQADPRHQGHRVQAVK: the protein stability index is 3.97.

DKELLCCSCQADPRHQGHRVQLVK: the protein stability index worked out at 2.84.

Consider DKELLCCSCQADPRHQGHRVQSVK, for which the protein stability index was found to be 3.08.

As to DKELLCCSCQADPRHQGHRVQYVK, the protein stability index turned out to be 2.92.

For the variant DKELLCCSCQADPRHQGHRVQNVK, the protein stability index turned out to be 3.05.

For DKELLCCSCQADPRHQGHRVQEVK, the protein stability index came out at 4.53.

For DKELLCCSCQADPRHQGHRVQCVK, the protein stability index worked out at 4.52.

For DKELLCCSCQADPRHQGHRVQHVK, the protein stability index was found to be 3.31.

Turning to DKELLCCSCQADPRHQGHRVQVVK, the protein stability index was 2.68.

Take DKELLCCSCQADPRHQGHRVQRVK: the protein stability index was 3.4.

DKELLCCSCQADPRHQGHRVQTVK: the protein stability index amounted to 4.03.

Consider DKELLCCSCQADPRHQGHRVQKVK, for which the protein stability index amounted to 4.08.

With DKELLCCSCQADPRHQGHRVQDVK, the protein stability index came out at 4.11.

Take DKELLCCSCQADPRHQGHRVQFVK: the protein stability index is 3.44.

For DKELLCCSCQADPRHQGHRVQIVK, the protein stability index is 3.04.

For DKELLCCSCQADPRHQGHRVQQVK, the protein stability index is 4.04.

Take DKELLCCSCQADPRHQGHRVQMVK: the protein stability index amounted to 2.73.

On to DKELLCCSCQADPRHQGHRVQPPK, for which the protein stability index came to 4.06.

With DKELLCCSCQADPRHQGHRVQPCK, the protein stability index worked out at 4.

DKELLCCSCQADPRHQGHRVQPKK: the protein stability index worked out at 4.55.

As to DKELLCCSCQADPRHQGHRVQPHK, the protein stability index turned out to be 3.23.

In the case of DKELLCCSCQADPRHQGHRVQPLK, the protein stability index worked out at 4.02.

Turning to DKELLCCSCQADPRHQGHRVQPEK, the protein stability index came to 3.92.

Take DKELLCCSCQADPRHQGHRVQPNK: the protein stability index stood at 3.8.

As for DKELLCCSCQADPRHQGHRVQPSK, the protein stability index stood at 3.36.

As for DKELLCCSCQADPRHQGHRVQPIK, the protein stability index stood at 4.25.

Take DKELLCCSCQADPRHQGHRVQPMK: the protein stability index worked out at 3.05.

For DKELLCCSCQADPRHQGHRVQPAK, the protein stability index is 3.88.

For the variant DKELLCCSCQADPRHQGHRVQPGK, the protein stability index was determined as 3.87.

For the variant DKELLCCSCQADPRHQGHRVQPTK, the protein stability index came to 3.4.

Consider DKELLCCSCQADPRHQGHRVQPFK, for which the protein stability index came out at 3.07.

For DKELLCCSCQADPRHQGHRVQPQK, the protein stability index came to 4.13.

For the origin of these results see the supplement of paper PMC10567573.
